Target: G-actin (rabbit muscle actin monomers) (rabbit, UniProt P68135 1-377)
Experiment: fluorescence polarisation; competition: anisotropy of 50 nM Rhodamine-VCA with 150 nM G-actin and increasing VCA or VCA mutants; 10 mM Hepes pH 7.0, 50 mM KCl, 1 mM MgCl2, 1 mM EGTA, 1 mM DTT, 0.2 mM ATP, 350 nM Latrunculin B; KD is the mean of at least three fits
Details: both partners purified

Kd: 560 ± 30 nM
B1: N-WASP-VCA (domain or fragment)
chain: PVSCSGRDALLDQIRQGIQLKSVTDAPESTPPAPAPTSGIVGALMEVMQKRSKAIHSSDEDEDEDDDEDFEDDDEWED
notes: N-WASP, VCA region (verprolin homology, central, acidic); The text implies a GST tag with a TEV site on the VCA constructs; also called monomeric VCA; WT; source: purified as described previously (Hetrick et al., 2013)

From article PMC3762189, “Mechanism of synergistic activation of Arp2/3 complex by cortactin and N-WASP” (eLife, 2013)
